# Measured values: patent publication US20130210034A1, “COMPLEX PHOSPHOPROTEIN ACTIVATION PROFILES” (BECKMAN COULTER, INC., priority 2005, published 2013)
# Several values for one entry are separate records, joined by “and”; a condition that tells them apart may be missing. Identical values can stand only once.
# Legend:
# Format in all cases: cell-based, human
# [1] = system: pERK; assay: Cytokine-stimulated phosphorylation in AML cell populations (BM or PB of AML patients)
# Description: (§1) To assess the signal transduction response after growth factor simulation, a series comprising two sets of tubes including about 3×10^6 cells/100 μL were incubated at 37° C. for 30 minutes. After this pre-incubation period, tubes with then processes with either a stimulant or inhibitor. […] To examine the effects of protein phosphorylation inhibition, tubes were incubated with an inhibitor cocktail comprising 100 μM/100 μL UO126, 1 μM/100 μL LY294002, and 1 μM/100 μL rapamycin. One unstimulated tube receiving no stimulant or inhibitor was processed to assess basal levels of phospho-protein expression. After stimulation the cells were immediately fixed in 10% formaldehyde solution at 37° C. Pre-labeling with CD13, CD16 and CD64 antibodies was carried out 20 minutes prior to formaldehyde fixation. After fixation, one set of tubes was permeabilized without methanol for pAKT, pERK and pS6 staining and the other for 80% methanol permeabilized for pSTAT3 and pSTAT5 staining. After permeablization, the cells were washed in PBS with 2% BSA and blocked by re-suspended in 75 μL of PBS comprising 25% heat inactivated normal mouse serum, 25% normal rabbit serum. To stain cells with fluorescent conjugated monoclonal antibodies, samples were incubated on ice for 45 minutes in 100 μL of an antibody staining solution including either: 1) CD15-Pacific Orange, CD34-Phycoerythrin-Texas Red, CD117-Phycoerythrin-Cyanin 5.5, CD45-Allophycocyanin-Alexa Fluor 750 (or CD45-Pacific Orange, in which case CD15-Pacific Orange was omitted), pS6-Pacific Blue, pERK-Alexa Fluor 488 and pAKT-Alexa Fluor 647 or 2) CD15-Pacific Orange, CD34-Phycoerythrin-Texas Red, CD117-Phycoerythrin-Cyanin 5.5, CD45-Allophycocyanin-Alexa Fluor 750 or CD45-Pacific Blue, pSTAT3-Alexa Fluor 488 and pSTAT5-Phycoerythrin. The stained cells were washed twice with ice cold PBS containing 2% BSA and centrifuged at 800 g for 6 minutes at 4° C. The supernatant was discarded and cells re-suspended in 250 μL of chilled wash buffer for data acquisition. Stained cells were examined using either GALIOS flow cytometer (Beckman Coulter) or CYAN ADP (Beckman Coulter) equipped with 488 nm, 405 nm and 635 nm lasers to detect the degree of fluorescence. Data were analyzed using FCS Express (De Novo Software, CA) analysis software.
# (§2) Specific phosphoprotein expression of pERK, pS6, pAKT, pSTAT5, and pSTAT3 was examined in seven discrete phenotypically defined populations based on 7-color immunophenotyping (FIG. 1). The percent of responding (phosphorprotein positive) cells for each of these populations was determined from individual single parameter histograms based on a fixed integration region set on the inhibitor treated control at about 3% positives.
# Using normal BM signaling profiles of Example 1 as comparison, analysis of 14 AML samples was carried out to identify differences in signaling responses. White blood cells from BM or peripheral blood (PB) samples were obtained from 14 diagnosed AML patients undergoing routine clinical flow cytometry analysis using IRB approved protocols. The AML patients included newly diagnosed AML, AMLs arising in a background of MDS, therapy related AMLs and previously diagnosed AML post therapy. The median age of the patients at diagnosis was 51 years (range: 29-75 years) and represented 5 female and 9 male patients. The median white blood cell was 6.4 million/mL (range: 0.9-106 M/mL) and the BM morphologic blast count was an average of 46% (range: 0%-90%).
# Experiments performed to assess the signal transduction response after growth factor simulation were performed as described for Example 1.
# [2] = system: pSTAT3; assay: Cytokine-stimulated phosphorylation in immunophenotypically defined cell populations from healthy donor BM (flow cytometry); conditions: healthy donor BM, mean ± SD;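 as to pSTAT3 S/N ratio: Phosphoprotein MFI normalized to lymphocyte MFI as internal negative control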
# Description: (§3) Bone marrow (BM) samples were collected in 7.5 mL Iscove's modified Dulbecco's medium (IMDM) supplemented with 100U penicillin, 0.01 mg/mL streptomycin, and 70 μg/mL heparin sodium salt from 10 patients undergoing hip replacement surgery, who were otherwise healthy. These patients were from a pool of surgery patients, age 49 to 77, and represented […] patients. […] These BM samples were rinsed twice with IMDM to release cells, filtered using a 100 μm Nylon cell strainer to remove marrow particles, and centrifuged for at RT fro 7 minutes at 200 g. The cell pellet was washed twice with sterile IMDM to remove traces of fat and re-suspended in IMDM to a concentration of 3×10^7 cells/mL.
# as §1, §2
# [3] = system: pERK; assay: as above; conditions: for pERK Percent (%) Responding Cells, Mean / pERK S/N ratio: healthy donor BM, mean ± SD
# Description: as §3, §1, §2
# [4] = system: pAKT; assay: as above; conditions: for pAKT Percent (%) Responding Cells, Mean / pAKT S/N ratio: healthy donor BM, mean ± SD;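 as to pAKT S/N ratio: Phosphoprotein MFI normalized to lymphocyte MFI as internal negative control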
# Description: as §3, §1, §2
# [5] = system: pSTAT5; assay: as above; conditions: healthy donor BM, mean ± SD;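 as to pSTAT5 S/N ratio: Phosphoprotein MFI normalized to lymphocyte MFI as internal negative control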
# Description: as §3, §1, §2
# [6] = system: pS6; assay: as above; conditions: healthy donor BM, mean ± SD
# Description: as §3, §1, §2
# 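For pERK S/N ratio in this document: Phosphoprotein MFI normalized to lymphocyte MFI as internal negative control.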
molecule,measurement,setting,value
"FMS-Like Tyrosine Kinase 3 (FLT-3) ligand (protein, UniProt P49771 27-235, looked up) Fms-related tyrosine kinase 3 …: TQDCSFQHSPISSDFAVKIRELSDYLLQDYPVTVASNLQDEELCGGLWRLVLAQRWMERLKTVAGSKMQGLLERVNTEIHFVTKCAFQPPPSCLRFVQTNISRLLQETSEQLVALKPWITRQNFSRCLELQCQPDSSTLPPPWSPRPLEATAPTAPQPPLLLLLLLPVGLLLLAAAWCLHWQRTRRRTPRPGEQVPPVPSPQDLLLVEH","pERK, AML Sample",[1]; patient AML1 (Example 3),10.3
same,"pERK, AML Sample",[1]; patient AML5 (Example 3),8.1
same,"pERK, AML Sample",[1]; patient AML9 (Example 3),12.0
same,"pSTAT3 Percent (%) Responding Cells, Mean",[2]; CD34^+ (CD34^+/CD117^+ cells),13.5 ± 9.4%
same,pSTAT3 S/N ratio,[2]; CD34^+ (CD34^+/CD117^+ cells),3.5 ± 3.3
same,"pSTAT3 Percent (%) Responding Cells, Mean",[2]; CD117^+ (CD34^−/CD117^+ cells),3.5 ± 2.2%
same,pSTAT3 S/N ratio,[2]; CD117^+ (CD34^−/CD117^+ cells),2.6 ± 0.6
same,"pSTAT3 Percent (%) Responding Cells, Mean","[2]; G1, immature myeloid cells",2.7 ± 3.3%
same,pSTAT3 S/N ratio,"[2]; G1, immature myeloid cells",3.4 ± 0.4
same,"pSTAT3 Percent (%) Responding Cells, Mean","[2]; G2, intermediate myeloid cells",1.8 ± 1.4%
same,pSTAT3 S/N ratio,"[2]; G2, intermediate myeloid cells",3.3 ± 0.6
same,"pSTAT3 Percent (%) Responding Cells, Mean","[2]; G3, mature myeloid cells",5.3 ± 5.6%
same,pSTAT3 S/N ratio,"[2]; G3, mature myeloid cells",3.7 ± 0.5
same,"pSTAT3 Percent (%) Responding Cells, Mean","[2]; Mono, monocytes",4.8 ± 3.9%
same,pSTAT3 S/N ratio,"[2]; Mono, monocytes",2.6 ± 0.4
same,"pERK Percent (%) Responding Cells, Mean",[3]; CD34^+ (CD34^+/CD117^+ cells),76.9% and 76.9 ± 11.0%
same,pERK S/N ratio,[3]; CD34^+ (CD34^+/CD117^+ cells),11.9 ± 3.6
same,"pERK Percent (%) Responding Cells, Mean",[3]; CD117^+ (CD34^−/CD117^+ cells),37.1 ± 8.8%
same,pERK S/N ratio,[3]; CD117^+ (CD34^−/CD117^+ cells),10.9 ± 2.9
same,"pERK Percent (%) Responding Cells, Mean","[3]; G1, immature myeloid cells",3.3 ± 5.4%
same,pERK S/N ratio,"[3]; G1, immature myeloid cells",2.9 ± 0.7
same,"pERK Percent (%) Responding Cells, Mean","[3]; G2, intermediate myeloid cells",6.3 ± 11.2%
same,pERK S/N ratio,"[3]; G2, intermediate myeloid cells",2.8 ± 0.6
same,"pERK Percent (%) Responding Cells, Mean","[3]; G3, mature myeloid cells",9.1 ± 15.6%
same,pERK S/N ratio,"[3]; G3, mature myeloid cells",3.6 ± 1.3
same,pERK S/N ratio,"[3]; Mono, monocytes",12.8 and 12.8 ± 6.7
same,"pERK, Normal Sample","[3]; Table 7 comparison value, matches percent responding CD34^+ cells of Tables 1-5",76.9
same,"pAKT Percent (%) Responding Cells, Mean",[4]; CD34^+ (CD34^+/CD117^+ cells),34.3% and 34.3 ± 19.4%
same,pAKT S/N ratio,[4]; CD34^+ (CD34^+/CD117^+ cells),7.2 ± 4.9
same,"pAKT Percent (%) Responding Cells, Mean",[4]; CD117^+ (CD34^−/CD117^+ cells),20.5 ± 28.3%
same,pAKT S/N ratio,[4]; CD117^+ (CD34^−/CD117^+ cells),2.8 ± 2.9
same,"pAKT Percent (%) Responding Cells, Mean","[4]; G1, immature myeloid cells",3.0 ± 4.3%
same,pAKT S/N ratio,"[4]; G1, immature myeloid cells",2.3 ± 1.1
same,"pAKT Percent (%) Responding Cells, Mean","[4]; G2, intermediate myeloid cells",3.6 ± 5.0%
same,pAKT S/N ratio,"[4]; G2, intermediate myeloid cells",2.4 ± 1.0
same,"pAKT Percent (%) Responding Cells, Mean","[4]; G3, mature myeloid cells",3.8 ± 2.5%
same,pAKT S/N ratio,"[4]; G3, mature myeloid cells",2.7 ± 1.3
same,"pAKT Percent (%) Responding Cells, Mean","[4]; Mono, monocytes",21.5% and 21.5 ± 23.8%
same,pAKT S/N ratio,"[4]; Mono, monocytes",4.2 ± 3.0
same,"pAKT, Normal Sample",[4]; Table 7 comparison value,76.9
same,"pSTAT5 Percent (%) Responding Cells, Mean",[5]; CD34^+ (CD34^+/CD117^+ cells),16.1 ± 6.1%
same,pSTAT5 S/N ratio,[5]; CD34^+ (CD34^+/CD117^+ cells),1.9 ± 1.4
same,"pSTAT5 Percent (%) Responding Cells, Mean",[5]; CD117^+ (CD34^−/CD117^+ cells),5.7 ± 5.8%
same,pSTAT5 S/N ratio,[5]; CD117^+ (CD34^−/CD117^+ cells),2.1 ± 0.6
same,"pSTAT5 Percent (%) Responding Cells, Mean","[5]; G1, immature myeloid cells",2.7 ± 2.5%
same,pSTAT5 S/N ratio,"[5]; G1, immature myeloid cells",2.6 ± 0.5
same,"pSTAT5 Percent (%) Responding Cells, Mean","[5]; G2, intermediate myeloid cells",2.0 ± 1.6%
same,pSTAT5 S/N ratio,"[5]; G2, intermediate myeloid cells",2.7 ± 0.5
same,"pSTAT5 Percent (%) Responding Cells, Mean","[5]; G3, mature myeloid cells",3.1 ± 1.0%
same,pSTAT5 S/N ratio,"[5]; G3, mature myeloid cells",3.2 ± 0.7
same,"pSTAT5 Percent (%) Responding Cells, Mean","[5]; Mono, monocytes",3.1 ± 1.9%
same,pSTAT5 S/N ratio,"[5]; Mono, monocytes",3.9 ± 4.9
same,"pS6 Percent (%) Responding Cells, Mean",[6]; CD34^+ (CD34^+/CD117^+ cells),68.8% and 68.8 ± 21.1%
same,pS6 S/N ratio,[6]; CD34^+ (CD34^+/CD117^+ cells),31.1 ± 26.0
same,"pS6 Percent (%) Responding Cells, Mean",[6]; CD117^+ (CD34^−/CD117^+ cells),36.1 ± 16.4%
same,pS6 S/N ratio,[6]; CD117^+ (CD34^−/CD117^+ cells),44.4 ± 44.4
same,"pS6 Percent (%) Responding Cells, Mean","[6]; G1, immature myeloid cells",2.1 ± 1.5%
same,pS6 S/N ratio,"[6]; G1, immature myeloid cells",3.3 ± 1.9
same,"pS6 Percent (%) Responding Cells, Mean","[6]; G2, intermediate myeloid cells",2.5 ± 1.9%
same,pS6 S/N ratio,"[6]; G2, intermediate myeloid cells",2.9 ± 1.8
same,"pS6 Percent (%) Responding Cells, Mean","[6]; G3, mature myeloid cells",3.9 ± 2.7%
same,pS6 S/N ratio,"[6]; G3, mature myeloid cells",3.6 ± 2.3
same,pS6 S/N ratio,"[6]; Mono, monocytes",33.4 and 33.4 ± 30.5
